Experimental data published in publication PMC7225057.
Like-named read-outs stand apart in the source and are kept apart here.

Assays:
[1] = biological target: FITC-AM(37–52) [S45W/Q50W]; assay: fluorescence polarisation
[2] = biological target: FITC-AM(37–52) [S45W/Q50W]; assay: fluorescence polarisation; remark: listed apart in the source
FITC-sCT(22–32) (salmon) = assay: fluorescence polarisation
[3] = biological target: biotinylated sCT(1–32) [C1A/C7A] (salmon); assay: BLI
[4] = biological target: biotinylated sCT(1–32) [C1A/C7A] (salmon); assay: BLI; remark: listed apart in the source
[5] = biological target: Endo H-treated CTR.38–141 N130D (MBP-free CTR ECD) (human); assay: fluorescence polarisation
[6] = biological target: Endo H-treated CTR.38–141 WT (MBP-free CTR ECD) (human); assay: fluorescence polarisation
[7] = biological target: Glycan-free CTR.38–141 WT (E. coli-produced, MBP-free CTR ECD) (human); assay: fluorescence polarisation

Substance | Kd [2] [nM] | pKD [2] | Kd (FITC-sCT(22–32) (salmon)) [nM] | pKD (FITC-sCT(22–32) (salmon)) | further results
RAMP1-CLR.29–144 WT (tethered RAMP1-CLR ECD fusion, CGRP receptor ECD) (from UniProt O60894 24-111; Q16602 29-144) | 310 | 6.51 | – | – | Kd [1]: 280 nM; pKD [1]: 6.56
Endo H-treated CTR.38–141 WT (MBP-free CTR ECD) (domain or fragment) | – | – | 500 | 6.3 | kon [3]: 178000 M⁻¹ s⁻¹
salmon calcitonin sCT(22–32), unlabeled (peptide) | – | – | – | – | Ki [5]: 5600 nM; pKI [5]: 5.26; Ki [6]: 1600 nM; pKI [6]: 5.81; Ki [7]: 11000 nM; pKI [7]: 4.97
CTR.34–141 WT (MBP-free CTR ECD, glycosylated, no enzyme treatment) (domain or fragment) | – | – | 380 | 6.43 | –
RAMP1-CLR.29–144 N123D (tethered RAMP1-CLR ECD fusion) (from UniProt O60894 24-111; Q16602 29-144) (receptor) | 740 | 6.13 | – | – | –

Now from value to substance, other results behind:

Kd [2] [nM] | pKD [2] | Kd (FITC-sCT(22–32) (salmon)) [nM] | pKD (FITC-sCT(22–32) (salmon)) | Substance | further results
– | – | 2700 | 5.57 | Glycan-free CTR.38–141 WT (E. coli-produced, MBP-free CTR ECD) (domain or fragment) | Kd [3]: 30900 nM; Kd [4]: 10800 nM
1400 | 5.87 | – | – | RAMP1-CLR.29–144 WT, PNGase F-treated (deglycosylated) (from UniProt O60894 24-111; Q16602 29-144) (receptor) | –
– | – | 2000 | 5.7 | Endo H-treated CTR.38–141 N130D (MBP-free CTR ECD) (domain or fragment) | Kd [3]: 12400 nM; Kd [4]: 11900 nM
